Test results from the supplement of paper PMC10567573.

B1: SLC22A15 (parent)
chain: IAQYALLGYFIRSWRTLAILVNLQ
B2: RSPH3 (parent)
chain: KAASLARNLAKRRRTYLGGAAGRS

Variants of: B1
Experiment: protein stability index of a GFP-peptide fusion (GPS, HEK-293T) (PSI 1-6); higher = more stable
Conditions: c terminus: a fixed tail appended
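Also: lentivirally expressed fusions sorted by FACS into six bins by GFP to DsRed ratio, PSI derived from sequencing read proportions per bin multiplied by bin number.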

Variant | protein stability index
Y4I | 1.57
Y4E | 3.39
Y4Q | 2.44
Y4F | 3.81
Y4P | 4.01
Y4N | 4.26
Y4A | 3
Y4C | 3.29
Y4W | 2.78
I1D | 2.92
I1V | 2.17
I1P | 1.52
I1N | 4.39
L7Y | 2.5
L7S | 3.26
L7D | 2.67
L7N | 3.3
L7W | 2.78
L7C | 3.99
L7Q | 2.52
L7I | 1.71
L7M | 2.97
Q3C | 3.46
Q3K | 1.96
Q3A | 3.14

Variant | protein stability index
Q3D | 2.29
Q3G | 3.38
Q3H | 2.13
Q3V | 4.91
Q3L | 3.15
Q3R | 4.63
A5S | 2.48
A5R | 2.33
A5I | 2.52
A5E | 1.82
A5K | 2.1
A5G | 3.8
F10L | 3.4
F10V | 3.1
F10H | 3.27
F10K | 2.44
F10E | 4.46
F10A | 3.58
F10T | 4.13
F10Q | 3.4
F10G | 1.67
F10I | 4.57
F10P | 2.24
F10C | 2.86
I11S | 2.68

Variant | protein stability index
I11F | 3.45
I11K | 3.38
I11N | 2.32
I11Q | 2.14
I11V | 2.88
I11E | 1.63
I11T | 3.02
I11L | 2.34
I11A | 2.96
I11D | 3.1
I11M | 2.89
I11H | 2.63
I11R | 2.37
I11C | 2.6
I11P | 2.1
I11Y | 2.72
Y9Q | 4.48
Y9N | 2.22
Y9C | 2.75
Y9A | 1.47
Y9I | 2.71
Y9D | 2.57
Y9E | 2.03
Y9G | 3.34
Y9W | 2.92

Variant | protein stability index
Y9K | 1.29
R12G | 2.97
R12E | 3.81
R12D | 1.86
R12F | 3.61
R12H | 2.5
R12C | 2.67
A2K | 2.18
A2F | 1.95
A2M | 3.88
A2G | 2.41
A2P | 4.19
A2R | 3.65
A2S | 2.1
A2V | 2.88
A2I | 3.22
A2E | 2.65
A2N | 4.69
A2T | 3.18
A2H | 2.48
L6M | 3.42
L6Y | 2.49
L6Q | 2.46
L6N | 2.26
L6S | 2.22

Variant | protein stability index
L6I | 3.23
L6R | 4.15
L6G | 4.36
L6K | 2.31
L6F | 2.34
L6H | 1.67
L6T | 4.1
L6E | 2.55
L6P | 2.95
G8V | 2.97
G8Q | 3.07
G8L | 1.88
G8M | 3.1
G8K | 1.71
G8C | 2.42
G8I | 3.12
G8N | 1.67
G8E | 1.83
G8S | 3.52
G8Y | 1.76
G8F | 2.71
G8H | 2.21
G8P | 1.82

Variants of: B2
Experiment: as above
Conditions: c terminus: a fixed tail appended

Variant | protein stability index
R14N | 1.99
R14V | 2.24
R14C | 2.96
R14S | 3.11
R14Q | 2.57
R14D | 1.41
R14G | 1.73
R14E | 2.66
R14L | 1.84
R14F | 1.02
S4Y | 1.48
S4G | 3.32
S4W | 1.89
S4Q | 2.36
S4N | 3.2
S4I | 1.83
S4D | 3.47
S4R | 2.82
S4V | 2.36
S4E | 1.99
S4H | 2.32
Y16K | 2.49
Y16M | 2.26
Y16V | 2.17

Variant | protein stability index
Y16E | 1.86
Y16L | 2.29
Y16H | 3.32
Y16Q | 2.81
Y16P | 3.04
Y16A | 3.41
Y16F | 3.2
Y16G | 3.03
R23C | 1.99
R23I | 1.59
R23F | 1.63
R23K | 2.14
R23P | 2.83
R23M | 2
R23Q | 1.23
R23D | 2.61
R23G | 1.85
R23V | 2.15
R23W | 1.61
R23H | 2.37
R23L | 1.83
G19C | 1.97
G19R | 2.93
G19F | 2.03

Variant | protein stability index
G19Q | 3.22
G19E | 2.13
G19H | 2.59
G19P | 1.46
G19I | 1.87
G19N | 2.68
G19W | 1.67
G19A | 2.32
G19S | 3.14
G19T | 2.38
L9A | 3.41
L9W | 2.38
L9R | 4.9
L9F | 2.44
L9P | 3.94
L9N | 4.46
L9K | 4.94
L9E | 4.34
T15M | 3.14
T15V | 1.91
T15Y | 1.29
T15F | 2.31
T15H | 2.09
T15D | 2.17

Variant | protein stability index
R13T | 2.4
R13A | 1.51
R13G | 2.11
R13W | 2.91
R13S | 2.52
R13D | 3.58
R13V | 1.92
R13F | 3.92
R13N | 3.36
R13M | 3.77
G18H | 3.07
G18A | 2.25
G18S | 1.69
G18Y | 3.11
G18E | 2.45
G18T | 1.97
G18M | 2.5
G18L | 2.32
G18I | 2.86
G18V | 2.36
G18K | 2.35
G18F | 1.78
R7N | 3.59
R7L | 2.51

Variant | protein stability index
R7E | 4.36
R7D | 3.83
R7T | 2.08
R7S | 2.58
R7G | 2.54
R7V | 1.98
N8K | 2.52
N8Y | 3.42
N8G | 3.98
N8F | 2.33
N8S | 2.88
N8L | 2.26
N8Q | 1.35
N8D | 3.23
G22W | 1.44
G22H | 1.44
G22L | 2.42
G22K | 2.05
G22D | 2.03
G22N | 3.29
G22Y | 2
G22F | 2.17
K11A | 1.64
K11N | 2.36

Variant | protein stability index
K11I | 2.78
K11T | 1.56
K11G | 2.49
K11F | 1.92
K11W | 1.71
K11Q | 1.98
K11P | 2.89
K11R | 2.91
L5W | 2.58
L5M | 2.33
L5F | 2.56
L5V | 4.21
L5G | 4.8
L5I | 2.58
L5T | 3.96
L5C | 2.89
L5A | 4.18
L5Q | 4.14
L5D | 4.65
A10G | 4.07
A10D | 3.14
A10C | 1.98
A10F | 1.29
A10T | 3.17

Variant | protein stability index
A10H | 3.15
A10S | 2.91
A10V | 2.43
A10N | 2.64
A6K | 2.4
A6P | 3.94
A6G | 3.27
A6Y | 1.94
A6W | 1.58
A6H | 2.2
A6C | 1.06
A6S | 3.07
A6F | 2.23
A6R | 2.56
A6M | 2.52
S24I | 3.4
S24L | 2.04
S24E | 2.01
S24H | 2.41
S24K | 2
S24D | 3.31
S24M | 2.2
S24R | 2.32
S24F | 1.94

Variant | protein stability index
S24C | 2.11
S24Q | 3.37
S24N | 1.85
S24A | 2.7
S24P | 1.83
A21P | 2.68
A21V | 2.25
A21D | 2.69
A21W | 1.7
A21E | 3.14
A21K | 3.2
A21I | 1.91
A21R | 1.71
L17Y | 3.3
L17H | 3.26
L17E | 2.32
L17K | 4.17
L17S | 2.75
L17G | 2.66
L17M | 2.64
L17F | 2.05
L17R | 3.44
L17N | 3.18
L17W | 1.69

Variant | protein stability index
R12I | 2.24
R12G | 2.75
R12Y | 1.18
R12F | 1.68
R12K | 2.9
R12N | 2.4
R12C | 2.46
R12Q | 2.24
R12H | 2.41
A20S | 1.72
A20G | 3.39
A20D | 3.98
A20T | 2.35
A20H | 2.59
A20E | 2.45
A20M | 2.42
A20R | 2.98
A20W | 2.48
A20V | 2.6
